± gives the half width of the 95% confidence interval.
Tests used:
[1] = folding stability dG unfold from chymotrypsin proteolysis; higher = more stable
In short: (§1)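 Sequencing followed digestion of designed mini-proteins with trypsin and chymotrypsin, each at 11 concentrations in threefold dilutions together with a no-protease condition. The mini-proteins were under 80 residues, had no cysteine, sat in a PA-tagged cDNA display construct, and were kept only if AlphaFold2 dimer inter-PAE was above 15. From the counts, Bayesian fitting gave K50, and unfolding free energy was derived against a sequence-predicted unfolded-state K50 and a shared folded-state K50, per protease or combined.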

[2] = folding stability dG unfold from trypsin proteolysis; higher = more stable
In short: as §1

[3] = folding stability dG unfold (combined trypsin and chymotrypsin); higher = more stable
In short: as §1

Sequence	folding stability dG unfold [1] [kcal/mol]	folding stability dG unfold [2] [kcal/mol]	folding stability dG unfold [3] [kcal/mol]
SAGGSAGGAFTVTLPDGRPVRVRLLGATFTFEVRIPPGVPDVVPGAKPDEVVKVTRVVLVVSLDSAGGSAGG [r6_907_TrMRF]	4.57 ± 0.096	2.82 ± 0.13	4.16 ± 0.14
SAGGSAGGGKMEYDPKDGTMRWRDPANGIEHESRIEIPPIVIPADDLPKLREQFPPDMPVVLAGSAGGSAGG [r6_104_TrROS]	0.94 ± 0.062	0.238 ± 0.034	0.722 ± 0.043
SAGGSAGGKTIVIDMSIEEIAKKLGLEIVEVKKNKDGSVTITLKNGKKITIKVKSPEDLLKAIKSAGGSAGG [r6_13_TrROS_Hall]	3.03 ± 0.15	1.65 ± 0.11	2.54 ± 0.29
SAGWKIKLENIEFFPNGRIRVMFEIEDPNGRPWRVQAQFDPDNPGKIKIKVENPDNGQEQEITFTIKPPSAG [r5_345_TrROS]	4.13 ± 0.1	3.15 ± 0.18	3.83 ± 0.24
SANDAMRKMMENMSPEDMMEMVRPPVPPPPVVTIRVPIEDLPKFLQWLSEEFGVEIEREDGYLYITVTASAG [r14_7_TrROS]	1.48 ± 0.034	0.623 ± 0.084	1.22 ± 0.095
SAGGSAMFKSPSDKYFEPIAVIDLEKASPETLKALLEENPGKLLVIPKSTGKPRLIPAEELLELLGSAGGSA [r15_904_TrMRF]	-0.154 ± 0.41	0.0892 ± 0.21	0.0646 ± 0.2
SAGGAFPPGEKVEVRIEVVELPGEGTYLLRAYLPGGKLLWERPFPEGELEAFAEEFRSLGFDTVEVTPSAGG [r13_765_TrMRF]	2.736 ± 0.0075	2.512 ± 0.021	2.69 ± 0.035
SAGGSMTAEELEGLPAEEIAELLPSDYTVSFIPETGLLVVEAPTRVVLATYNPAEGTVTLLEVRDASAGGSA [r2_470_TrMRF]	0.819 ± 0.07	0.849 ± 0.086	0.91 ± 0.12
SAGGSAGGSAGKKKGKKPKKIKVKKIKLIVKDKETNEYYEKEITVNKDGTLTIKVKKLKKSAGGSAGGSAGG [r11_883_TrROS_Hall]	3.07 ± 0.089	1.85 ± 0.083	2.75 ± 0.1
SKKKKTIVIELTKDELKELLKKLKVEEGDEVEIFVRNKDGSIYKLTIKNGKITKIEPFKGVPNKVVIVIKSA [r9_849_TrROS_Hall]	3.49 ± 0.068	1.84 ± 0.067	3.07 ± 0.3
SAGGKVTLRAPVVVPKDKIEDFIDALREALEALGLKEFKDIEIKEIIEGDDYYIIDFEVTAEADLPELASAG [r5_575_TrMRF]	2.21 ± 0.036	2.65 ± 0.12	2.32 ± 0.13
SAGGSAGGNVLIPKSKLEEFLKNIPFEVLVLNPENPRLEIARVEADDIFVDDDYALILLTVSNDSAGGSAGG [r6_753_TrMRF]	0.221 ± 0.18	1 ± 0.032	0.742 ± 0.12
SAGGSAGGSAGGSVWIRMPPSKIKDLLDKFGIEPIEIEKMPPGWVYIRITPDALKEAGVFSAGGSAGGSAGG [r7_587_TrROS]	0.887 ± 0.3	0.839 ± 0.14	0.946 ± 0.16
SAGGGPAKEVPILALIKARNPETGEEYELPIVITANSKEDVEAAKGLVDTLAEALRELGFTEVEVEIGSAGG [r13_360_TrMRF]	2.72 ± 0.042	2.97 ± 0.069	2.83 ± 0.058
SARIRIMVPPDFIMVRTPKGKMRMVDDPEEIEEIIKDILPVPIEIEPLPPNSPKFQKMMEMMMREQNGPSAG [r14_235_TrROS]	0.158 ± 0.23	-0.264 ± 0.48	0.0355 ± 0.18
SAGGSAGGSMVYKVTVYIPESGETREFVDPGSEEEIKARVKELFPDPNVKVEITPIEASPELLSAGGSAGGS [r12_92_JUSTAS]	1.51 ± 0.051	2.11 ± 0.042	1.82 ± 0.045
SAGGWEIVGSITIEHPNRPIIFPVFRDPEEGNVWVSIYRMDPENGKWQPIGVVPFPKGDAEDALDDISAGGS [r8_423_TrROS]	1.86 ± 0.11	1.03 ± 0.054	1.53 ± 0.16
SAGGSAGGSAGLEALKKALEALPPGEERELEIEVEVDGKLYRFRIRVEKTEDGEYKATIELESAGGSAGGSA [r18_493_TrROS_Hall]	4.88 ± 0.084	4.56 ± 0.34	4.76 ± 0.16
SAGGSAGGSSPSSVSTYDIEFPDGTKIKITVTLGPGTPVVEITTLTESPPVKRVANTEEVKFESAGGSAGGS [r20_100_JUSTAS]	0.995 ± 0.041	-0.0821 ± 0.059	0.696 ± 0.19
SAGGSASLASLRKVGETVTYTITPDGTLTVTTHTFYRDPVTGELVVESTTTTTPIPPGDAAALAALSAGGSA [r15_207_JUSTAS]	2.37 ± 0.054	2.72 ± 0.072	2.5 ± 0.098
SRIKISIFRPGKIIPEIPIKVDSVEEAVEKVLEYIRKFPPNAPYYIMIEVEHTDPANGQKQEGTVHIPIKSA [r9_245_TrROS]	4 ± 0.048	2.22 ± 0.059	3.39 ± 0.12

Sequence	folding stability dG unfold [1] [kcal/mol]	folding stability dG unfold [2] [kcal/mol]	folding stability dG unfold [3] [kcal/mol]
SAGGSAGGSIFIHWTYEMEHERDPDDPDEPRMKMKIKDWVISIPEDDPDKLKELADKLGIPIISAGGSAGGS [r12_249_TrROS]	1.69 ± 0.068	0.577 ± 0.087	1.24 ± 0.11
SAGGSAGGMKVLATTEDGEVYLFDLSEFDLSFEEWLNLGEEELAELLRKAFPEKEITLELVEEPSAGGSAGG [r6_164_TrMRF]	3.3 ± 0.047	2.5 ± 0.076	3.02 ± 0.077
SAGGMTLTVDEIKELLKKGYSLEEIKEALKKAGFEIVEIKKIEKKDGKIYIEIEFKKNKKIIKIEIPSAGGS [r8_179_TrROS_Hall]	4.35 ± 0.18	3.38 ± 0.24	4.2 ± 0.35
EKALEAARELARKLAEELGVEVEVRVKKVSVLNENGELIAEVEVEITVRPLPPPVVEEEEVEEEEVEFEEES [r1_318_TrROS_Hall]	2.18 ± 0.17	1.82 ± 0.1	1.99 ± 0.23
SAGGSAGGSAGGDPDDKPPKIEWKPIEYSFYLPNGWMISDEIWVFPDNGAILISIEIMPSAGGSAGGSAGGS [r10_881_TrROS]	3.67 ± 0.31	2.48 ± 0.21	3.37 ± 0.95
SAGKETIKIKLFDKNGKLIAEIEIEKLPDGTYKIKIKNKKTGKELEIEVKIEDGKIYIKLPNGAILEIESAG [r5_809_TrROS_Hall]	5.13 ± 0.2	3.51 ± 0.19	5.04 ± 0.2
SAGDALKDIFPGLEIEPHEKPVKVPPGKPVEFAFIIRMPDGEIMIFDMHFNPGGEVRVRVLTIKLPEKSAGG [r19_125_TrROS]	4.81 ± 0.14	2.88 ± 0.16	3.96 ± 0.27
SAGGSIRIYANNVEITDIEIGDDGYIEIKVRMRGPNGQPQEFTLMIRVVPPPPPPKVDPNDPDAKDSAGGSA [r2_368_TrROS]	3.5 ± 0.29	2.51 ± 0.1	3.08 ± 0.31
SAGGSAGGSAGGGSITITFKHPDGGEVTIEITPPEPTVRVTVTLPNGEKLEYEFDFVPASAGGSAGGSAGGS [r10_595_TrMRF]	3.68 ± 0.11	3.24 ± 0.22	3.58 ± 0.14
SAGGSAGGSAGGPWITIPLPPGEEYKIENKGNGKEQEINPNDGSIVIPNIPPDNAKVERESAGGSAGGSAGG [r7_200_TrROS]	-0.177 ± 0.24	0.179 ± 0.041	0.232 ± 0.14
SAGGSIKVFESESTDPATGKVTTTTTTVTESSEEPTPEAAKNTPPGETTTTTTTTTTTSPVPPGTAASAGGS [r8_274_JUSTAS]	0.67 ± 0.022	0.476 ± 0.057	0.54 ± 0.14
SAGGSAGGSAGGNYVVRIEHNGQPIMEQPFPGSLEDAKDYVKEIAQFFPPDKVKIEVYKFSAGGSAGGSAGG [r7_81_TrROS]	0.458 ± 0.19	-0.0528 ± 0.057	0.292 ± 0.095
SAGGSAGGMPVEVTETPVGTFPDGSTVTRTETVLPGGEVLVETTVTYPDGSSTTTTRRVPPELASAGGSAGG [r6_263_JUSTAS]	2.41 ± 0.059	2.39 ± 0.084	2.43 ± 0.092
SAGGSVEVEPLPNGLLRVTTVFSESKTPILRKLTYKDENGKPLGTKLELLPEEVEVESVTELLPPELLSAGG [r13_848_JUSTAS]	0.606 ± 0.11	-1.07 ± 0.29	0.256 ± 0.079
SAGGSAGGSAGGSSFTIKVELKDENGNKYTITVTGTGSAETVKKELEKKYPNKIVKITGSAGGSAGGSAGGS [r4_412_TrMRF]	2.897 ± 0.025	1.93 ± 0.089	2.69 ± 0.046
SAGGSAMVETKTFEFEFEFEFENPDGEPATVTVPVTVEVPVLVPVAAPGPPGANGPEKELEELEKESAGGSA [r15_728_TrMRF]	0.641 ± 0.065	1.05 ± 0.096	0.782 ± 0.13
SAGGSAGGSAGMVTETTVSRLPDGTVTTTTTEYVVHPDGSLEPVRERTTTTPVPPDVPAASAGGSAGGSAGG [r11_440_JUSTAS]	1.142 ± 0.011	0.396 ± 0.051	0.897 ± 0.037
SAGGSAGGSAKAVIFFEGASIEDVVEAVKARPEEEVLVVFPDGRVLLLTKDDVVVVVPAPFSAGGSAGGSAG [r3_269_TrMRF]	1.22 ± 0.11	1.19 ± 0.052	1.23 ± 0.093
SAGGSAGGSAGKNWFFRIKIKYPNGEERTIYIPGTLDEIKEELPGPIKNIDIEPMPAEDMSAGGSAGGSAGG [r11_596_TrROS]	1.76 ± 0.1	1.05 ± 0.045	1.52 ± 0.078
SAGGSWLPPGMWIISISIKWEMREMTFSPNGQPEMEMRLEIDIQVIKIPPPPPPPKEDAKNPNGKWSAGGSA [r2_495_TrROS]	2.22 ± 0.3	0.946 ± 0.15	1.66 ± 0.35
SAGGSAGGKLPKNIEKIEFNKKTNIIKVKVKSLEDLKKLAEKLNFEIVSVEEKDGYIYIKIKKKSAGGSAGG [r6_380_TrROS_Hall]	2.796 ± 0.027	1.86 ± 0.038	2.47 ± 0.081

Reference: the supplement of paper PMC12764529
